From US20230220589A1

Tests used:
[1] = biological target: M17-modified M NTAA target peptides; experiment: encoding assay; P2 Q
[2] = biological target: M17-modified W NTAA target peptides; experiment: encoding assay; P2 S
[3] = biological target: M17-modified S NTAA target peptides; experiment: encoding assay; P2 A
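Also: fraction of recording tags encoded.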

B1: upgraded binder after additional maturation round (SEQ ID NO: 62) (designed binder, not shown: small tags and cut ends; large carriers)
chain: TVPDRSEIAGKWYVVALASNTEFYLRGKDRVKSAMVRISFQGEDELKVSSAVPSPNGCYKVERTWKKTSDDGEVYNSRAAKLKVEVLDTDYKSYAVIYATRVKDRRTDHQMILYSRSPDVSPAATAIFRKLAGERNYTDEMVAMLPRQEECTVDEV
B1 gave an encoding yield [1] of 0.01, an encoding yield [2] of 0.03 and an encoding yield [3] of 0.01.
